Results as given in patent US20170253650A1 (FRAUNHOFER GESELLSCHAFT ZUR FOERDERUNG DER ANGEWANDTEN …, published 2017).

Legend:
[1] = target: MSP4 on P. falciparum 3D7A parasites (mature schizonts / merozoite surface) (Plasmodium falciparum 3D7A); assay: cell-based or functional assay
[2] = target: MSP4 on P. falciparum K1 parasites (multi-drug-resistant strain) (Plasmodium falciparum K1); assay: cell-based or functional assay

B1: Gb-2.44 (enterokinase-activated EGb-2.44scFv fusion protein: granzyme B R201K fused to MSP4-specific scFv 2.44) (other)
chain: SRHIDDDDKIIGGHEAKPHSRPYMAFLMIWDQKSLKRCGGFLIRDDFVLTAAHCWGSSINVTLGAHNIKEQEPTQQFIPVKRAIPHPAYNPKNFSNDIMLLQLERKAKRTRAVQPLRLPSNKAQVKPGQTCSVAGWGQTAPLGKHSHTLQEVKMTVQEDRKCESDLRHYYDSTIELCVGDPEIKKTSFKGDSGGPLVCNKVAQGIVSYGKNNGMPPRACTKVSSFVHWIKKTMKRYAEHEGDAAQPAMADVQLQESGPGLVKPSQSLSLTCTVTGYSITSDFAWNWIRQFPGNRLEWMGYMGYTGSTSYNPSLRGRISITRDTSKNQFFLQLNSVTTEDTATYYCARGDYYGSRGYFDVWGAGTTVTVSSGGGGSGGGGSSGGGSGGGGSEIVLTQSPALMAASPGEKVTITCSVSSSIRSSNLHWYQQKSDTSPKPWIYGTSNLASGVPVRFSGSGSGTSYSLTISTMEAEDAATYYCQQWSSYPFTFGSGTKLEIKAAANSSLGSGWSHPQFEKTGHHHHHHHHGGQ
**Q.** What does the source list for B1?
**A.** half maximal inhibitory concentration (IC50-value), 48-h drug susceptibility assay on P. falciparum 3D7A (PfHRP2 ELISA) [1]: 176 nM; IC50-value, 48-h drug susceptibility assay on multi-drug resistant strain P. falciparum K1 (PfHRP2 ELISA) [2]: 247 nM
